Test results taken from patent publication US20170362327A1 (GLENMARK PHARMACEUTICALS S A, published 2017).
Numbering of substitutions follows the chain as printed. In names and notes the source's numbering stands.

B1: MNAC13 mouse antibody (antibody, mouse IgG1, kappa, V domains shown)
VH: EVKLVESGGGLVQPGGSLKLSCAASGFTFSTYTMSWARQTPEKRLEWVAYISKGGGSTYYPDTVKGRFTISRDNAKNTLYLQMSSLKSEDTALYYCARGAMYGNDFFYPMDYWGQGTSVTVSS
VL: QIVLTQSPAIMSASLGEEITLTCSASSSVSYMHWYQQKSGTSPKLLIYTTSNLASGVPSRFSGSGSGTFYSLTISSVEAEDAADYYCHQWSSYPWTFGGGTKLEIKA
notes: Mouse monoclonal anti-TrkA antibody; also called parental murine antibody
B2: BXhVH1VL1 (antibody, human IgG1, kappa, V domains shown)
VH: EVQLLESGGGLVQPGGSLRLSCAASGFTFSTYTMSWVRQAPGKGLEWVSYISKGGGSTYYPDTVKGRFTISRDNSKNTLYLQMNSLRAEDTAVYYCAKGAMYGNDFFYPMDYWGQGTTVTVSS
VL: EIVLTQSPATLSLSPGERATLSCSASSSVSYMHWYQQKPGQAPRLLIYTTSNLASGIPARFSGSGSGTDFTLTISSLEPEDFAVYYCHQWSSYPWTFGQGTKLEIKR
notes: IGHG1, kappa
B3: GBR VH3(V37A)VL3 (antibody, human IgG1, kappa, V domains shown)
VH: B2 VH with V37A, A40T, G44R, S49A
VL: B2 VL with E1Q, A42S, A59S, D69F, F70Y, Q99G
notes: IGHG1, kappa
B4: BXhVH3VL1 (antibody, human IgG1, kappa)
heavy: not shown
light: EIVLTQSPATLSLSPGERATLSCSASSSVSYMHWYQQKPGQAPRLLIYTTSNLASGIPARFSGSGSGTDFTLTISSLEPEDFAVYYCHQWSSYPWTFGQGTKLEIKRTVAAPSVFIFPPSDEQLKSGTASVVCLLNNFYPREAKVQWKVDNALQSGNSQESVTEQDSKDSTYSLSSTLTLSKADYEKHKVYACEVTHQGLSSPVTKSFNRGEC
notes: IGHG1, kappa
B5: GBR VH5(V37A)VL1 (antibody, human IgG1, kappa)
heavy: not shown
light: B4 light
notes: IGHG1, kappa; also called GBR VH5(V37A)VL1 IGHG1 antibody; GBR VH5 (V37A)VL1 antibody
B6: BXhVH3VL3 (antibody, human IgG1, kappa, V domains shown)
VH: B2 VH with A40T, G44R, S49A
VL: B2 VL with E1Q, A42S, A59S, D69F, F70Y, Q99G
notes: IGHG1, kappa
B7: GBR VH1(V37A)VL1 (antibody, human IgG1, kappa, V domains shown)
VH: B2 VH with V37A
VL: B2 VL
notes: IGHG1, kappa
B8: BXhVH5VL3 (antibody, human IgG1, kappa, V domains shown)
VH: B2 VH with Q3K, A40T, G44R, S49A, K98R
VL: B2 VL with E1Q, A42S, A59S, D69F, F70Y, Q99G
B9: GBR VH3(V37A)VL1 (antibody, human IgG1, kappa, V domains shown)
VH: B2 VH with V37A, A40T, G44R, S49A
VL: B2 VL
notes: IGHG1, kappa
B10: GBR VH5(V37A)VL3 (antibody, human IgG1, kappa, V domains shown)
VH: B2 VH with Q3K, V37A, A40T, G44R, S49A, K98R
VL: B2 VL with E1Q, A42S, A59S, D69F, F70Y, Q99G
notes: IGHG1, kappa
B11: GBR VH5(K3Q,V37A)VL1 (antibody, human IgG1, kappa)
heavy: not shown
light: B4 light
notes: IGHG1, kappa
B12: GBR VH5(V37A)VL1 IGHG4 S228P (antibody, human IgG4 S228P, kappa)
heavy: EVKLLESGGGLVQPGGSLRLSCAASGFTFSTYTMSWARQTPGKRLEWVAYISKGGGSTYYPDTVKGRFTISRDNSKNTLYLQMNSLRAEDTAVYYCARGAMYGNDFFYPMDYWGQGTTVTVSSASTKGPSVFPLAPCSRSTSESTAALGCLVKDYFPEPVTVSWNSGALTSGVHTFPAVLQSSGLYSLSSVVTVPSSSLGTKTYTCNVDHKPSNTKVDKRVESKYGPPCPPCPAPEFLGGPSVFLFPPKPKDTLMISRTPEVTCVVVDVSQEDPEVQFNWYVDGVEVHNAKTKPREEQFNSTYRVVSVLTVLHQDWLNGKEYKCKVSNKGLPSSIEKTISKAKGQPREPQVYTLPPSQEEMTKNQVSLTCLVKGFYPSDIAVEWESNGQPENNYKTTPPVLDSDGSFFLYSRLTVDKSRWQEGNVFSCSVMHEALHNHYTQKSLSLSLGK
light: B4 light
notes: IGHG4 isotype with S228P (EU) hinge substitution, kappa
B13: GBR VH5(K3Q,V37A)VL1 IGHG4 S228P (antibody, human IgG4 S228P, kappa)
heavy: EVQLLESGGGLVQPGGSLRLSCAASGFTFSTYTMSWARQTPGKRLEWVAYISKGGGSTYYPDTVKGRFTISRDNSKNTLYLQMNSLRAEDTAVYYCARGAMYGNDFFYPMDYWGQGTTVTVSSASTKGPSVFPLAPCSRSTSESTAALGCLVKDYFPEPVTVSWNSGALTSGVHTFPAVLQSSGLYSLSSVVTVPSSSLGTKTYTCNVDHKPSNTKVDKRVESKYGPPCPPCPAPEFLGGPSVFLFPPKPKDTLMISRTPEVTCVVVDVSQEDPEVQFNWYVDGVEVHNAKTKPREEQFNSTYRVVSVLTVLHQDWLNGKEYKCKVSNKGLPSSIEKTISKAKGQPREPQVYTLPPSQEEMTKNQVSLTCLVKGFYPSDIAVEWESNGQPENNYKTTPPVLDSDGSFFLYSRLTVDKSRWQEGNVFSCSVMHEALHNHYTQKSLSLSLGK
light: B4 light
notes: as for B12
B14: GBR VH5(R94K)VL1 (antibody, human IgG1, kappa)
heavy: not shown
light: B4 light
notes: IGHG1, kappa
B15: GBR VH5(K3Q, V37A, R44G)VL1 (antibody, human IgG1, kappa, V domains shown)
VH: B2 VH with V37A, A40T, S49A, K98R
VL: B2 VL
notes: IGHG1, kappa
B16: GBR VH5(K3Q, V37A, T40A, P60A, T62S)VL1 (antibody, human IgG1, kappa, V domains shown)
VH: B2 VH with V37A, G44R, S49A, P61A, T63S, K98R
VL: B2 VL
notes: IGHG1, kappa

Molecular target: T1, monovalent human TrkA extracellular region (human, UniProt P04629 33-423)
T1 construct: also called recombinant monovalent human TrkA extracellular domain
T1 sequence (P04629 33-423): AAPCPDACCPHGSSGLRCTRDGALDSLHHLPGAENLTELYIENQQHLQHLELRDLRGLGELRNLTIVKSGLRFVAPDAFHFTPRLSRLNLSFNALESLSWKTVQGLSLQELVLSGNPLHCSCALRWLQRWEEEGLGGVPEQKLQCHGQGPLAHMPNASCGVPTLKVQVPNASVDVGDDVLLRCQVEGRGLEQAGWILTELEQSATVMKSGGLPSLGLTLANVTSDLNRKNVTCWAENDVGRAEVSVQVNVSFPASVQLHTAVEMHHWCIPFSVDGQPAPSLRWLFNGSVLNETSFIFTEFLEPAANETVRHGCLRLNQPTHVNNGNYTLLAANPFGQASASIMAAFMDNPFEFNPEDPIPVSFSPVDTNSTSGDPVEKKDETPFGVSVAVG
Assay: SPR (BIAcore 2000), antibody captured via anti-mouse immunoglobulin, monovalent TrkA extracellular region as analyte
Protocol: (§1) SPR analysis was used to measure the association and dissociation rate constants for the binding kinetics of the different antibodies (mouse and humanized antibodies). The binding kinetics of the mouse antibody and humanized variants were measured on a BIACORE 2000 instrument (GE Healthcare Europe GmbH, Glattbrugg, Switzerland) at room temperature, and analyzed with the BiaEvaluation software (v4.1, GE Healthcare Europe GmbH, Glattbrugg, Switzerland).
(§2) Antibodies were immobilized via capture of their Fc portion to allow for correct orientation on the sensor chip surface. A monoclonal mouse anti-human IgG (Fc) antibody sensor chip was used to capture all humanized antibodies regardless of their isotypes (Human Antibody Capture Kit, catalogue number BR-1008-39, GE Healthcare Europe GmbH), and a polyclonal rabbit anti-mouse immunoglobulin sensor chip was used to capture the MNAC13 mouse antibody (Mouse Antibody Capture Kit, catalogue number BR-1008-38, GE Healthcare Europe GmbH).
(§3) Data (sensorgram: fc2-fc1) were fitted with a 1:1 Langmuir model with mass transfer in spite of having little mass transfer limitation in mass transfer tests. To account for the experimental variations in captured antibody at the beginning of each measurement, the Rmax value was set to local in all fits. Dissociation times were of at least 350 seconds. Measurements were performed in triplicate, and included zero-concentration samples for referencing. Both Chi2 and residual values were used to evaluate the quality of a fit between the experimental data and individual binding models.

| Binder | Kd | koff | kon |
| --- | --- | --- | --- |
| B1 | 18 nM | 0.00109 s⁻¹ | 60200 M⁻¹ s⁻¹ |

Molecular target: T1, monovalent human TrkA extracellular …
Assay: SPR (BIAcore 2000), antibody captured via Fc, monovalent TrkA extracellular region as analyte
Protocol: as §1, §2, §3

| Binder | Kd | koff | kon |
| --- | --- | --- | --- |
| B2 | 426 nM | 0.0133 s⁻¹ | 31300 M⁻¹ s⁻¹ |
| B3 | 95 nM | 0.00295 s⁻¹ | 31000 M⁻¹ s⁻¹ |
| B4 | 133 nM | 0.00619 s⁻¹ | 46500 M⁻¹ s⁻¹ |
| B5 | 16 nM | 0.00225 s⁻¹ | 140000 M⁻¹ s⁻¹ |
| B6 | 134 nM | 0.00459 s⁻¹ | 31400 M⁻¹ s⁻¹ |
| B7 | 338 nM | 0.00663 s⁻¹ | 19600 M⁻¹ s⁻¹ |
| B8 | 63 nM | 0.00395 s⁻¹ | 62300 M⁻¹ s⁻¹ |
| B9 | 123 nM | 0.00471 s⁻¹ | 38200 M⁻¹ s⁻¹ |
| B10 | 28 nM | 0.00205 s⁻¹ | 74500 M⁻¹ s⁻¹ |
| B11 | 15.4 nM | 0.00262 s⁻¹ | 170000 M⁻¹ s⁻¹ |

Molecular target: T1, monovalent human TrkA extracellular …
Assay: SPR, against BXhVH5VL1
Protocol: as §1, §2, §3

| Binder | fold decrease of KD against BXhVH5VL1 | fold increase in affinity against BXhVH5VL1 |
| --- | --- | --- |
| B5 | 2.5 fold | 2.5 fold |
| B11 | 2.7 fold | – |

Molecular target: T1, monovalent human TrkA extracellular …
Assay: SPR (BIAcore 2000), antibody captured via Fc, monovalent TrkA extracellular region as analyte
Remark: another data set of the same source
Protocol: as §1, §2, §3

| Binder | Kd |
| --- | --- |
| B12 | 15 nM |
| B13 | 15 nM |
| B14 | 52 nM |
| B5 | 16 nM |
| B15 | 20 nM |
| B16 | 48 nM |
| B11 | 15.4 nM |
